Measured values taken from patent US20200164083A1.

Target: capture reagent (antibody) of the exenatide ELISA kit (Peninsula Laboratories Inc., # S-1311)
Assay: ELISA (Peninsula Lab exenatide kit)

exenatide (peptide) gave an EC50 of 0.2 nM.
